For assay [1], the target named is T1, untagged recombinant human FcRn extracellular domain (neonatal Fc receptor; α-chain with β2-microglobulin) (human, UniProt P55899 24-297; P61769 21-119).
T1 construct: Human FcRn α-chain (heavy chain), residues 24-297 of UniProt P55899; Human β2-microglobulin, residues 21-119 of UniProt P61769; Untagged; both chains cloned into separate phCMV3 vectors; also called human FcRn ectodomain; FcRn heterodimer; source: Expi293F cells, co-transfected (1:1), purified from the supernatant (human IgG column, SEC Superdex 200 Increase)
Kind of assay: BLI; biotinylated spike immobilised on streptavidin (SA) biosensors; FcRn in solution, 2-fold dilutions 1,000 to 31.25 nM; 23°C; pH 7.5; 1:1 binding model; Octet Red. The settings on record: both partners purified.

In assay [2] the target is T1, untagged recombinant human FcRn …. The assay can be described thus: BLI; biotinylated spike immobilised on streptavidin (SA) biosensors; FcRn in solution, 2-fold dilutions 1,000 to 31.25 nM; 23°C; pH 6.0; 1:1 binding model; Octet Red. The settings on record: both partners purified. (In general: BLI is a label-free optical method that tracks binding on a fibre tip over time.)

T1 sequence (P55899 24-297, chain 1 of 2): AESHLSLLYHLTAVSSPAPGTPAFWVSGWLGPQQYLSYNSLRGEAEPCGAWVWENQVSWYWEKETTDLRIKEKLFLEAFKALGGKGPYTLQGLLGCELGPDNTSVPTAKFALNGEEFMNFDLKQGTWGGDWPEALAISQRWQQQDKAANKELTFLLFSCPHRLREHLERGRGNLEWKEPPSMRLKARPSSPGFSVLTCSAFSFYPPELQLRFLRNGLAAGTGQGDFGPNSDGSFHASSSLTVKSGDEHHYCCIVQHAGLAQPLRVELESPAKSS
T1 sequence (P61769 21-119, chain 2 of 2): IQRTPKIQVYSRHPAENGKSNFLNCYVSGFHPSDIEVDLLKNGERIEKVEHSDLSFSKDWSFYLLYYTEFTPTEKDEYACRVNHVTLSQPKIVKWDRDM

B1: HAstV-8 capsid spike domain (residues 424-645) (domain or fragment)
chain: SIPEPGEQFRVLLTVGPPMAPNTANSQNWVNKTIVPPENQYTVKIGIDLEHYTTMQGFTPVESVSWYTADFQPSDEPSPIPGLYARVNNTKKADVYGVQQFKSSHTNNRHQITSVFLVRVTTSFQVINYTSYFIRGAESGSNVSNLKIRDQTYHTPLQFTQGKWYLLTSTVMHDGPTSSGWVWMNQELTNNIAYRVDPGMMYLITPPPAASQLYFELHTVLP
modifications: biotin (biotinylated spike; BirA co-transfected)
notes: Human astrovirus serotype 8 capsid protein (ORF2-encoded precursor), spike domain, residues 424-645 of Q9IFX1; Codon-optimised, in pcDNA3.1; also called HAstV8 spike; serotype 8 spike; source: Expi293F cells, co-transfected with BirA plasmid, purified from the supernatant (Ni-IMAC, SEC Superdex 200); not shown: AviTag, C-terminal, kept
With B1, the figures for the Kd in assay [1] and in assay [2] were 458 nM and 60 nM, respectively.

B2: HAstV-2 capsid spike domain (residues 428-647) (domain or fragment)
chain: SGELRVLLTVGSIMSPNSADRQVWLNKTLTAPGTNSNDNLVKIAHDLGHYLIMQGFMHIKTVEWYTPDFQPSRDPTPIAGMSVMVNITKKADVYFMKQFKNSYTNNRHQITSIFLIKPLADFKVQCYMSYFKRESHDNDGVANLTVRSMTSPETIRFQVGEWYLLTSTTLKENNLPEGWVWDRVELKSDTPYYADQALTYFITPPPVDSQILFEGNTTLP
modifications: biotin (biotinylated spike; BirA co-transfected)
notes: Human astrovirus serotype 2 capsid protein (ORF2-encoded precursor), spike domain, residues 428-647 of Q82446.1; Codon-optimised, in pcDNA3.1; also called HAstV2 spike; serotype 2 spike; source: Expi293F cells, co-transfected with BirA plasmid, purified from the supernatant (Ni-IMAC, SEC Superdex 200); not shown: AviTag, C-terminal, kept
As for B2, the Kd (usually the constant that tells how readily two partners part at equilibrium) in assay [1] amounted to 898 nM; in assay [2], 42 nM.

The record behind these values is article doi:10.1101/2025.09.13.676064, “Structural Hijacking of FcRn by Human Astrovirus Spikes Reveals Conserved Epitopes for Broad-Spectrum Antivirals” (bioRxiv, 2025).
